The assay addresses BMP4/7 heterodimer (human) (UniProt P12644). Description: cell-based or functional assay.

BMP4/7 heterodimer (human), sequence (P12644 293-408, chain 1 of 2): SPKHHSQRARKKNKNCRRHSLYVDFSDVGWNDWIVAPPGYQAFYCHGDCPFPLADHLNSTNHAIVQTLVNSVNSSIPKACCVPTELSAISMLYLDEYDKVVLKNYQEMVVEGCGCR
BMP4/7 heterodimer (human), sequence (P18075 293-431, chain 2 of 2, further chain): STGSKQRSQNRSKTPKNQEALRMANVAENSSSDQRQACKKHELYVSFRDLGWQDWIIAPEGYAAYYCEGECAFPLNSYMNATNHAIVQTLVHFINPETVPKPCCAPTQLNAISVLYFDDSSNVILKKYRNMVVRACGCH

On to “Gremlin 1 Full length (from UniProt O60565 25-184) (ligand)”, for which the IC50 (geometric mean, N=2), inhibition of BMP4/7 signalling, Hek-Id1 reporter gene assay came out at 1.6 nM.

The record behind these values is patent US20230174635A1.
